The source of these data is US11193929.

In assay [1] the target is 3D5F7 monoclonal antibody, Fab' fragment coupled to alkaline phosphatase. Kind of assay: VIDAS one-step sandwich immunoassay; capture 19C7+B90 on tip, detection 3D5F7+7B9 Fab'-alkaline phosphatase; peptide (20 ng/mL peptide).
For assay [2] the target is unchanged. Kind of assay: VIDAS one-step sandwich immunoassay; capture 19C7+B90 on tip, detection 3D5F7+7B9 Fab'-alkaline phosphatase; peptide (50 ng/mL peptide).
For assay [3] the target is unchanged. Kind of assay: VIDAS one-step sandwich immunoassay; capture 19C7+B90 on tip, detection 3D5F7+7B9 Fab'-alkaline phosphatase; peptide (100 ng/mL peptide).
The target is the same in assay [4]. Put plainly: VIDAS one-step sandwich immunoassay; capture 19C7+B90 on tip, detection 3D5F7+7B9 Fab'-alkaline phosphatase; peptide (200 ng/mL peptide).
Assay [5] has the same target. Kind of assay: VIDAS one-step sandwich immunoassay; capture 19C7+B90 on tip, detection 3D5F7+7B9 Fab'-alkaline phosphatase; peptide at (500 ng/mL peptide).
Assay [6] has the same target. Put plainly: VIDAS one-step sandwich immunoassay; capture 19C7+B90 on tip, detection 3D5F7+7B9 Fab'-alkaline phosphatase; peptide at (1000 ng/mL peptide).
Assay [7] has the same target. Kind of assay: VIDAS one-step sandwich immunoassay; capture 19C7+B90 on tip, detection 3D5F7+7B9 Fab'-alkaline phosphatase; peptide at (2000 ng/mL peptide).
For assay [8] the target is unchanged. Put plainly: VIDAS one-step sandwich immunoassay; capture 19C7+B90 on tip, detection 3D5F7+7B9 Fab'-alkaline phosphatase; peptide at (4000 ng/mL peptide).
The target is the same in assay [9]. Kind of assay: VIDAS one-step sandwich immunoassay; capture 19C7+B90 on tip, detection 3D5F7+7B9 Fab'-alkaline phosphatase; (10 ng/mL peptide).
For assay [10] the target is unchanged. Put plainly: VIDAS one-step sandwich immunoassay; capture 19C7+B90 on tip, detection 3D5F7+7B9 Fab'-alkaline phosphatase; peptide at 2 ng/mL.
The target is the same in assay [11]. Kind of assay: VIDAS one-step sandwich immunoassay; capture 19C7+B90 on tip, detection 3D5F7+7B9 Fab'-alkaline phosphatase; compound (5 ng/mL peptide).
The target is the same in assay [12]. Kind of assay: VIDAS one-step sandwich immunoassay; capture 19C7+B90 on tip, detection 3D5F7+7B9 Fab'-alkaline phosphatase; compound (50 ng/mL peptide).
The target is the same in assay [13]. Kind of assay: VIDAS one-step sandwich immunoassay; capture 19C7+B90 on tip, detection 3D5F7+7B9 Fab'-alkaline phosphatase; compound at (1 ng/mL peptide).
The target is the same in assay [14]. Put plainly: VIDAS one-step sandwich immunoassay; capture 19C7+B90 on tip, detection 3D5F7+7B9 Fab'-alkaline phosphatase; compound at (20 ng/mL peptide).

Where no end group is shown, it is not given here. [ ]: non-standard residue; d: D form. AEEA = NCCOCCOCC(=O)O

B1: Noncoupled peptide 1 (peptide)
peptide: ATEPHAKKKCAGLGFAELQDL
modifications: (Ado)2 (dimer of 8-amino-3,6-dioxaoctanoic acid) between ATEPHAKKK and C and between C and AGLGFAELQDL; C-terminal amide
As to B1, the signal in RFV amounted to 2 RFV in assay [1]; 21 RFV in assay [2]; 69 RFV in assay [3]; 356 RFV in assay [4]; 1820 RFV in [5]; 3800 RFV in [6]. Further, the signal in RFV was determined as 6140 RFV in [7] and 7540 RFV in assay [8].

B2: Compound 3 (Peptide 1 - IgG) (peptide, part only; not given: polyclonal rabbit IgG carrier, part only)
peptide: ATEPHAKKK[AEEA][AEEA]CAGLGFAELQDL-NH2
modifications: not fully specified (some residues); numbers in words are those of the source; also: Cys thioether-coupled to IgG carrier, about 10 peptides per IgG
As for B2, the signal in RFV in [9] was 1690 RFV; in assay [10], 360 RFV; in [11], 882 RFV; in assay [12], 6210 RFV; in [13], 175 RFV; in assay [14], 3280 RFV.
